Earlier results as cited in US7708978B2, “Targeted hydrophilic polymer, binders with interferon and medical composite comprising above binders” (Beijing Jiankai Technology Co., Ltd., priority 2002, dated 2010).

Conditions: in vivo

Substance: interferon α
- circulation half-life: 4 to 8 h
